For this test, the target named is IL-15 βγ receptors on 32Dβ cells (UniProt P14784). The test can be described thus: cell-based or functional assay.
UniProt P14784, sequence (P14784 27-551, chain 1 of 2): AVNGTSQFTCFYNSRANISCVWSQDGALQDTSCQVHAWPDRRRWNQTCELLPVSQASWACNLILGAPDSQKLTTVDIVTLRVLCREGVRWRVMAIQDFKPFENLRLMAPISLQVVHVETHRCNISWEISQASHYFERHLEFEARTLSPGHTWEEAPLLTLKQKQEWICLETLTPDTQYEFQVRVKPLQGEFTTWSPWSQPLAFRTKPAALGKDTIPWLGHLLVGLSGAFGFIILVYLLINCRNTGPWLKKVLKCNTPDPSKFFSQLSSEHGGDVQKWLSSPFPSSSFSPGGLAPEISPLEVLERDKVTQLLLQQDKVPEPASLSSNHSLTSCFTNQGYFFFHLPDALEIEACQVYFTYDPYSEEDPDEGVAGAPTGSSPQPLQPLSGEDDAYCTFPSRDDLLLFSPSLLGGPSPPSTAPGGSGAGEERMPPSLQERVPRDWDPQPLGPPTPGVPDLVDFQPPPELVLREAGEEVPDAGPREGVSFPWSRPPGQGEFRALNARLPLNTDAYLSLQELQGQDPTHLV
UniProt P14784, sequence (P34902 23-369, chain 2 of 2, further chain): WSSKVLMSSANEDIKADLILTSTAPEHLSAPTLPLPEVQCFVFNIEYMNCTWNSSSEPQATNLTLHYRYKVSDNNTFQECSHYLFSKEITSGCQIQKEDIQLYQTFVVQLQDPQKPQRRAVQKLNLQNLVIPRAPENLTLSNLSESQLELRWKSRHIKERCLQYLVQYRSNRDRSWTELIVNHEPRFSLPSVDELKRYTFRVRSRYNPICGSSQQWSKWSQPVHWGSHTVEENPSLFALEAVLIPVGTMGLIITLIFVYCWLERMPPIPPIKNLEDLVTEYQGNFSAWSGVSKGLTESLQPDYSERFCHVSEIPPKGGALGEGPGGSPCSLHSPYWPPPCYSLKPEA

Consider “IL-15 (from UniProt P40933 49-162) (ligand)”, for which the 32Dβ cell proliferation (WST-1), EC50 is 0.034 nM.

For the origin of these results see patent publication US20170342119A1.
